Experiment: yeast display, Sf9 membrane polyspecificity reagent, FACS + sequencing; frameworks hold sequencing errors
In short: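 Using colony PCR, genes from sorted yeast display clones were amplified, then sequenced on MiSeq at 2 × 250 and filtered by CDR length. The clones had been stained with 10% biotinylated, detergent-solubilized Sf9 membrane reagent for 1 hour at 4 °C and sorted by FACS into low and high (top ~1%) gates on anti-HA and streptavidin fluorescence. Polyreactivity labels come from the gate of origin.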

QVQLVESGGGLVQAGGSLRLSCAASGFIFTSYAMGWYRQAPGKERELVAAIDYSGGSTYYADSVKGRFTISRDNAKNTVYLQMNSLKPEDTAVYYCAAGDGLWPGSQTYDYWGQGTQVTVSS
polyreactivity (PSR sort gate): low polyreactivity

QVQLVESGGGLVQAGGSLRLSCAASGFIFTSYAMGWYRQAPGKERELVAAITRSGGRTYYADSVKGRFTISRDNAKNTVYLQMNSLKPEDTAVYYCAAVTFYQSPARGYWGQGTQVTVSS
polyreactivity (PSR sort gate): high polyreactivity

QVQLVESGGGLVQAGGSLRLSCAASGFIFTSYAMGWYRQAPGKERELVATISSSGGSTTYADSVKGRFTISRDNAKNTVYLQMNSLKPEDTAVYYCAAAVYVVRYVSLYRRYYWGQGTQVTVSS
polyreactivity (PSR sort gate): high polyreactivity

QVQLVESGGGLVQAGGSLRLSCAASGFIFTYYAMGWYRPAPGKERELVATISSGGGSTYYADSVKGRFTISRDNAKNTVYLQMNSLKPEDTAVYYCAASRRITGIRYLNRYEYWGQGTQVTVSS
polyreactivity (PSR sort gate): high polyreactivity

QVQLVESGGGLVQAGGSLRLSCAASGFIFTYYAMGWYRQAPGKERELVARITSGGASTYYADSVKGRFTISRDNAKNTVYLQMNSLKPEDTAVYYCAAQARGWGYDYWGQGTQVTVSS
polyreactivity (PSR sort gate): low polyreactivity

QVQLVESGGGLVQAGGSLRLSCAASGFIFVINAMGWYRQAPGKERELVAGISSGGRTNYADSVKGRFTISRDNAKNTVYLEMKSLKPEDTAVYYCAAAPTYKWRRKNYDYWGQGTQVTVSS
polyreactivity (PSR sort gate): high polyreactivity

QVQLVESGGGLVQAGGSLRLSCAASGFIFVKYAMGWYRQAPGKEREFVAAISQSGGNTYYADSVKGRFTISRDNAKNTVYLQMNSLKPEDTAVYYCNAKSYTRRSYYTPTVPGDYWGQGTQVTVSS
polyreactivity (PSR sort gate): low polyreactivity

QVQLVESGGGLVQAGGSLRLSCAASGFIFVLNAMGWYRQAPGKERELVAAIRWSGGSTYYADSVKGRFTISRDNAKNTVYLQMNSLKPEDTAVYYCAARLWLKVQYLRFFGYDYWGQGTQVTVSS
polyreactivity (PSR sort gate): low polyreactivity

QVQLVESGGGLVQAGGSLRLSCAASGFIFVNYMGWYRQAPGKERELVAAISRGGSTNYADSVKGRFTISRDNAKNTVYLQMNSLKPEDTAVYYCAAETWYSGYTYDYWGQGTQVTVSS
polyreactivity (PSR sort gate): low polyreactivity

QVQLVESGGGLVQAGGSLRLSCAASGFIFVPNAMGWYRQAPGKERELVAAIRWSDGTTYYADSVKGRFTISRDNAKNNVYLQMNSLKPEDTAVYYCATDHDPRYDYWGQGTQVTVSS
polyreactivity (PSR sort gate): high polyreactivity

QVQLVESGGGLVQAGGSLRLSCAASGFIFVPNTMGWYRQAPGKERELVAAITSVGSTNYADSVKGRFTISRDNAKNTVYLQMNSLKPEDTAVYYCPATLYYQYGGDYWGQGTQVTVSS
polyreactivity (PSR sort gate): low polyreactivity

QVQLVESGGGLVQAGGSLRLSCAASGFIFVPYAMGWYRQAPGKERELVAAISSGGSTYYADSVKGRFTISRDNAKNTVYLQMNSLKPEDTAVYYCNKRYYLYQYRYDYWGQGTQVTVSS
polyreactivity (PSR sort gate): low polyreactivity

QVQLVESGGGLVQAGGSLRLSCAASGFIFVPYAMGWYRQAPGKERELVASITYTGGSTYYADSVKGRFTISRDNAKNTVYLQMNSLKPEDTAVYYCASRYQYWRLHMDYWGQGTPVTVSS
polyreactivity (PSR sort gate): low polyreactivity

QVQLVESGGGLVQAGGSLRLSCAASGFIFVRYAMGWYRQAPGKEREFVAAISGGAGSTYYADSVKGRFTISRDNAKNTVYLQMNSLKPEDTAVYYCNRVRSLRYGYWGQGTQVTVSS
polyreactivity (PSR sort gate): high polyreactivity

QVQLVESGGGLVQAGGSLRLSCAASGFIFVSYAMGWYRQAPGKERELVAAIDRIGGITYYADSVKGRFTIARDIAKNTVYLQMNSLKPEDTAVYYCAAAARYATVRVGREYYWGQGTQVTVSS
polyreactivity (PSR sort gate): low polyreactivity

QVQLVESGGGLVQAGGSLRLSCAASGFIFVTYAMGWYRQAPGKERELVAAITNSGGTTYYADSVKGRFTISRDNAKNTVYLQMISLKPEDSAVYYCNKPYGAETAHREFDYWGQGTQVTVSS
polyreactivity (PSR sort gate): low polyreactivity

QVQLVESGGGLVQAGGSLRLSCAASGFIFVTYAMGWYRQAPGKETELVAAINNSGGTTYYADSVKGRFTISRDNAKNTVYLQMNSLKPEDTAVYFCNKRYGAETAHREFDYWGQGTQVTVSS
polyreactivity (PSR sort gate): low polyreactivity

QVQLVESGGGLVQAGGSLRLSCAASGFIFVVYAMGWYRQAPGTERELVATISSGGGTYYADSVKGRFTISRDNAKITVYLQMNSLKPEDTAVYYCAARRRRLYHFGGNNYWGQGTLVTVSS
polyreactivity (PSR sort gate): high polyreactivity

QVQLVESGGGLVQAGGSLRLSCAASGFIFVWYAMGWYRQAPGKERELVAGITASGGSTYYADSVKGRFTISRDNAKNTVYLQMNSLKPEDTAVYYCAADAWPLWLKLTPTSGGYWGQGTQVTVSS
polyreactivity (PSR sort gate): low polyreactivity

QVQLVESGGGLVQAGGSLRLSCAASGFIFVYNDMGWYRPAPGKERELVAAISTSGGSTYYADSVKGRFTISRDNAKNTVYLQMNSLKPEDTAVYYCAAGPSYYPFFWPDFEYWGQGTQVTVSS
polyreactivity (PSR sort gate): high polyreactivity

QVQLVESGGGLVQAGGSLRLSCAASGFIFVYYAMGWYRQAPGKERELVAAITSDVNTYYADSVKGRFSISRDNAKNTVYLHMNSLKPEDTAVDYCNADADDYRDYQDYDYWGQGSQVTVSS
polyreactivity (PSR sort gate): low polyreactivity

QVQLVESGGGLVQAGGSLRLSCAASGFIFWDYAMGLYRQAPGKERELVAAISDSGGDTYYADSVKGRFTISRDNAKNTVYFQINSLKPEDTAVYYCSADVELWVFRGQQYDYWGQGTQVTVSS
polyreactivity (PSR sort gate): low polyreactivity

Source: the nanobody polyreactivity screen of Harvey et al. (2022)
